Results as given in the supplement of paper PMC9170038.

Test system: MS2 coat protein
Assay: apparent KD of MS2 coat protein; designed switch direction (-1 OFF switch, 1 ON switch): -1; higher = weaker reporter binding
How it was run: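 On Illumina chips, designed RNA switches with common flanks were made by stalled E. coli RNA polymerase. Titrations with SNAP-549-labelled MS2 coat protein, doubling from 0.7 or 1.5 nM to 3 µM, were done with no input, with 200 uM small-molecule ligand, or with an oligonucleotide input. Apparent KD is the median per design over clusters, from curve fits of normalised cluster fluorescence.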

[1] = Eterna round: R95, input ligand: FMN 200 uM
[2] = Eterna round: R95, input ligand: microRNA oligo, concentration not stated
[3] = Eterna round: R95, input ligand: none
[4] = input ligand: microRNA oligo, concentration not stated

| Sequence | apparent KD of MS2 coat protein [1] [nM] | apparent KD of MS2 coat protein [2] [nM] | apparent KD of MS2 coat protein [3] [nM] | apparent KD of MS2 coat protein (input ligand: FMN 200 uM) [nM] | apparent KD of MS2 coat protein (input ligand: none) [nM] | apparent KD of MS2 coat protein [4] [nM] |
| --- | --- | --- | --- | --- | --- | --- |
| AAGAAACAUGAGGAUCACCCAUGUGAGGAUAUGAGCAAGAAAAGAAAAGAAAGAAGACUCAGAAGGCACAAAGG [salish99-ex1_r3_072] (puzzle: Exclusion 1) | 90.2 | 110 | 106 |  |  |  |
| CGUCUGUAAGGAUAUGGUUGCAUCAACAUGAGGAUCACCCAUGUUACAUGGGACUAGUGAUUAGAAGGUACGAACG [EX5 #57] (Eterna round: R97, puzzle: Exclusion 5) |  |  |  | 58.3 | 54.2 |  |
| ACAUGAGGAUCACCCAUGUCAGGCGGGUCCUCUCCGGCUGUUGAGGAUAUAGUCCGGUAUCCGCGCUAGAAGGUGAGGGCCGGC [Aenatbe mod 18] (Eterna round: R96, puzzle: Exclusion NG 3) |  |  |  | 18.1 | 20.2 | 16.4 |
| UAGAAAUUCAACGAGUGAAACAUGAGGAUCACCCAUGUGGUGGUAAGGAACAAGCUUUUUGCACGUACUUAUAAGAA [JR_SV3TOV1_Sub003] (puzzle: Sensor v3, turn-off variant 1) | 239 | 422 | 437 |  |  |  |
| AACAGUCUAGAGGAUAUGCUGGAUGAAUAUCUGGCAGAAGGCUGGACAUGAGGAUCACCCAUGUAAAUACUACC [Omei Ex6 A1c] (Eterna round: R97, puzzle: Exclusion 6) |  |  |  | 96.9 | 36.5 |  |
| UAAAAGCUAGGAUAUACAUGAGGAUCACCCAUGUCAACCACACGGAUGCGCCGAGCAUGUAGAAGGAGCACCGG [Soora] (puzzle: Exclusion 3) |  | 17 |  |  |  |  |
| CAGUACUGAGGAUAUACAUGAGGAUCACCCAUGUGCUCGAAGUAGGAUACUACUAUUAGUAGAAGGCAGUACUG [Fiskers Ex 3 828 mod 22] (puzzle: Exclusion 3) |  | 15.9 |  |  |  |  |
| AGUACUGACACGUUGGUGUUAGUACCAUAAGCUUGUGAUACAUGAGGAUCACCCAUGUCCUCAUAAGCUCGUCUUAU [salish99_TOv2_r2_096] (puzzle: Sensor v3, turn-off variant 2) | 27.4 | 484 | 26 |  |  |  |
| AAGAAACGAGGAUAUACAGUUGAGUGAGGGAGGGUAGUGUUACAUGAGGAUCACCCAUGUAGAAGGCGUGAGAG [JR_Exclu2_Sub090] (puzzle: Exclusion 2) | 24.8 | 19.3 | 25 |  |  |  |
| UUGUUGUAUGUAGGAUAUGCGUAUUGUUAUUAUGCAGAAGGACAUGAGGAUCACCCAUGUAUAUUAUUAUUAUAUAUUAUAUAU [Title] (Eterna round: R96, puzzle: Exclusion NG 1) |  |  |  |  |  | 20.1 |
| AUUUGCACGCUGCGGUCCUACAUGAGGAUCACCCAUGUGGUCUGGUGGCGUGGGUCGCCGGACUUGGCUCGUCUUGA [salish99_S_TOV1_R5_032] (Eterna round: R97, puzzle: Sensor, turn-off variant 1) |  |  |  | 17.5 | 17.9 |  |
| AUAACAUGCUGGUGAUCAUACAUGAGGAUCACCCAUGUAACAAGCUUUUUGCUCGUCUUAUAAUUUAAGAUCACCAG [Stov1/7-A2] (Eterna round: R97, puzzle: Sensor, turn-off variant 1) |  |  |  | 17.4 | 18.1 |  |
| GCGCCAUCGUGAGAUGGCGUAAUUACAUGAGGAUCACCCAUGUAGGAUAUCGAUUGCUUUGCAGUCGAGAAGGGCAAGGUUUGU [JL ENG3 3.84] (Eterna round: R96, puzzle: Exclusion NG 3) |  |  |  | 25.7 | 30.9 | 19.9 |
| AAAAAGUGAGGAUAUACAUAAGGACCCGGGAGGGAAAUAAAACAUGAGGAUCACCCAUGUAGAAGGCACAAAAA [Exclss2-I] (puzzle: Exclusion 2) | 20.2 | 22.2 | 13.5 |  |  |  |
| CCCAUGCCCGAGGAUAUGCUGUACAAAAGUACUGCAGAAGGCGGGACAUGAGGAUCACCCAUGUGGCGAAAGCC [Omei Ex G7] (Eterna round: R97, puzzle: Exclusion 6) |  |  |  | 11.5 | 124 |  |
| CCCUGACAUGAGGAUCACCCAUGUUAGGAUAUAACAUUUGACACGACAGUGUGAAGUGUUAGAAGGGAUAUGGG [-28.4, -26.7 kcal, A 31%] (Eterna round: R97, puzzle: Exclusion 1) |  |  |  | 36.2 | 22.1 |  |
| CCUCAGUCACAGGAUAUGCUCAUCUAAUGAUGAGCAGAAGGGUGAACAUGAGGAUCACCCAUGUUUACCAGGGU [Omei Ex6 E5] (Eterna round: R97, puzzle: Exclusion 6) |  |  |  | 36 | 161 |  |
| CCGCAAAUGCAGGAUAUCGUAUCGGAAACGAUACGAGAAGGGUAAACAUGAGGAUCACCCAUGUUCCUUAACGG [Mat - Exclusion 6 - Eli Mod - D98] (Eterna round: R96, puzzle: Exclusion 6) |  |  |  | 15.5 | 18.1 | 13.1 |
| GCACUGCGAGGAUAUACAUGAGGAUCACCCAUGUGUCGGCAGACAUGUUAUUUCUAAUGUAGAAGGCGCGUAAA [JR_Ex3_Sub002] (Eterna round: R97, puzzle: Exclusion 3) |  |  |  | 340 | 68.8 |  |
| UCGAGGUCAGGAUAUACAUGAGGAUCACCCAUGUGGAAGUAAGGUAGGAGAAGAGUAGGUAGAAGGGACGAGAG [JR_Exclu3_Sub050] (puzzle: Exclusion 3) |  | 30.8 |  |  |  |  |
| CUGAGCAGACGGAGAUCCAACAUGAGGAUCACCCAUGUCUCAAAAGCUUUUUGCUUGUCUUAUCCUCCUCUGUUCAC [Esqutian] (puzzle: Sensor v3, turn-off variant 1) | 14 | 390 | 12.3 |  |  |  |
| ACAUGUUAUGUAGGAUAUUGGACACAUGAGGAUCACCCAUGUACCCGGAGGCUUUACUAUGAGUUCGAGAAGGGUAUGUACAUG [Ex NG2 #69] (Eterna round: R96, puzzle: Exclusion NG 2) |  |  |  | 35.3 | 47.1 | 33.7 |
| CCUCCACAUGAGGAUCACCCAUGUCAGGAUAUCGUGUGUGCUUUUUCGGUCUUUCGUGCGAGAAGGGACGUCUG (puzzle: Exclusion 1) |  | 25.5 |  |  |  |  |
| UAUAUAUAGUAAGGAUAUGUAUAUUUUUUAUAAACAGAAGGUACUGACAUGAGGAUCACCCAUGUUUUAGUGUGGGCAUGUAGA [JMF's solution 53] (Eterna round: R96, puzzle: Exclusion NG 1) |  |  |  |  |  | 63.8 |
| AGAUAGUGGUGAGGAUAUCAGAAUAGAAAGAAAUGAGAAGGCGCACAUGAGGAUCACCCAUGUGAGGUCUUGAGACUACAUGGU [Prohibition 39 - Jieux - Exclusion NG 1] (Eterna round: R96, puzzle: Exclusion NG 1) |  |  |  |  |  | 15.7 |
| AGUAGUAGUAUCCGAUCUUACAUGAGGAUCACCCAUGUAGCUAGACGUGCACGCGAUGCUCGUCAGACUACCAGAUG [salish99_TOv1_r3_051] (puzzle: Sensor v3, turn-off variant 1) | 148 | 230 | 277 |  |  |  |
